Data taken from patent US20200147235A1 (AbbVie / Abbott, published 2020).

Assays:
[1] = molecular target: T1, Human CD98 ECD with C-terminal His-tag (human, UniProt P08195 105-529); experiment: SPR (Biacore), antibody captured on anti-Fc surface, CD98 ECD in solution
T1 construct: The entry includes the linker and the polyhistidine tag; also called huCD98 ECD
T1 sequence: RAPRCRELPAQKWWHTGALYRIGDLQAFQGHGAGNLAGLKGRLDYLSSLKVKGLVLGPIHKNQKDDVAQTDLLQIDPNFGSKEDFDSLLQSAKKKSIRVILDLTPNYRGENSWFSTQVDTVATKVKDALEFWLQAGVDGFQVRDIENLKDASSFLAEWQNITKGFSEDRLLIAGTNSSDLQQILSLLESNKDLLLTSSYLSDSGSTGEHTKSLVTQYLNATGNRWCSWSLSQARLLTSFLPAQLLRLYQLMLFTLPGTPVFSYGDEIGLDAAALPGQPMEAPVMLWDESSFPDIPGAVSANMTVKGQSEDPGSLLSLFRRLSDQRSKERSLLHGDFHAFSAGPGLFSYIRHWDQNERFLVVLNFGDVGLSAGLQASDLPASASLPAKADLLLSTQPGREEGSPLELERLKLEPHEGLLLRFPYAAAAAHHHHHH
Experimental: (§1) The binding kinetics of these purified mouse and rat monoclonal anti-CD98 antibodies for purified recombinant CD98 protein (extracellular domain. ECD) were determined by surface plasmon resonance-based measurements made on Biacore T100/T200 instruments (GE Healthcare, Piscataway, N.J.) at 25° C. using an anti-Fc capture assay approach. Binding kinetic measurements were made in the assay buffer HBS-EP+: 10 mM Hepes, pH 7.4, 150 mM NaCl, 3 mM EDTA, 0.05% Tween 20). For example, approximately 8000 RU of anti-Fc (species specific) polyclonal antibody (Thermo Fisher Scientific Inc. Rockford, Ill.) diluted in 10 mM sodium acetate (pH 4.5) was directly immobilized across a CM5 research grade biosensor chip using a standard amine coupling kit according to manufacturer's instructions and procedures at 25 μg/ml. Unreacted moieties on the biosensor surface were blocked with ethanolamine. The test antibody to be captured as a ligand was diluted in running buffer to ˜0.5 μg/mL and injected over anti-Fc surface at a flow rate of 10 μL/min, CD98 binding and dissociation were observed under a continuous flow rate of 80 μL/min. Human and cynomolgus monkey CD98 ECDs, both with a C-terminal His-tag, are used for this study (Table 3). After each cycle the anti-Fc capture surface was regenerated using 10 mM Glycine-HCl, pH 1.5. During the assay, all measurements were referenced against the capture surface alone (i.e., with no captured test antibody) and buffer-only injections (no antigen) were used for double referencing. For kinetic analysis, rate equations derived from the 1:1 Langmuir binding model were fitted simultaneously, globally and with mass transfer term included to multiple referenced antigen binding curves using Biacore T100T200 Evaluation software.
(§2) The binding kinetics of the recombinant anti-CD98 chimeric antibodies for purified recombinant CD98 protein (extracellular domain, ECD) were determined by surface plasmon resonance-based measurements, as described in the Example 4.

[2] = molecular target: T2, Cynomolgus monkey CD98 ECD with C-terminal His-tag (cynomolgus monkey, UniProt P08195 105-529 (human entry)); experiment: as above
T2 construct: The entry includes the linker and the polyhistidine tag; also called cyCD98 ECD
T2 chain: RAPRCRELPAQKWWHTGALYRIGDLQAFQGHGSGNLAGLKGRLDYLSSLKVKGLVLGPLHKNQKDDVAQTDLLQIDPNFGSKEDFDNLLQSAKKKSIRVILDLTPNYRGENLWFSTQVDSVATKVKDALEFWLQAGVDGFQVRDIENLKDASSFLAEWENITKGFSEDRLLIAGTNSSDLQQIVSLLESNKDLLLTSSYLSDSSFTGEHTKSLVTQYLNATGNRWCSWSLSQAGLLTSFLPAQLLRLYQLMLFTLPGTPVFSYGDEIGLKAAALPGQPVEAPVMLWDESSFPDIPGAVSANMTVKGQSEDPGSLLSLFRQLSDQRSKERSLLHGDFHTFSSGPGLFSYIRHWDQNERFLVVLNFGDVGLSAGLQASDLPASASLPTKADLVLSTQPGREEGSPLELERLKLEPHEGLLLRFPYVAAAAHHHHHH
Experimental: as §1, §2

[3] = molecular target: T3, Cynomolgus monkey CD98 ECD with C-terminal His-tag (SEQ ID NO: 127) (cynomolgus monkey, UniProt P08195 105-529 (human entry)); experiment: SPR (Biacore), recombinant CD98 ECD
T3 construct: The entry includes the linker and the polyhistidine tag; also called cyCD98 ECD
T3 chain: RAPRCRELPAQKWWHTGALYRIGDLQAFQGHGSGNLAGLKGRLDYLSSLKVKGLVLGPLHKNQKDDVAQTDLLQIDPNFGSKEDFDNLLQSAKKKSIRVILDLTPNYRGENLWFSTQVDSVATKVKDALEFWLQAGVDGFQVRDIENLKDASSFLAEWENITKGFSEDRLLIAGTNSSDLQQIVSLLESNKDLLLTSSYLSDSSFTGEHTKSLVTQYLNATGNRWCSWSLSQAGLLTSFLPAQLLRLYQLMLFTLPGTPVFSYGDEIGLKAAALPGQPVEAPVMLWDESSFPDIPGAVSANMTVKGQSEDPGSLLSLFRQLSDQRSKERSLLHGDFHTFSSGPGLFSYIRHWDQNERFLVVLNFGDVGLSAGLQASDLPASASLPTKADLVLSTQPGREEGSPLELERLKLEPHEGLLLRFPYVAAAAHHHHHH

[4] = molecular target: T4, Human CD98 ECD with N-terminal His-tag (human, UniProt P08195 105-529); experiment: SPR (Biacore), recombinant CD98 ECD
T4 construct: The entry includes the linker and the polyhistidine tag; also called huCD98 ECD
T4 sequence: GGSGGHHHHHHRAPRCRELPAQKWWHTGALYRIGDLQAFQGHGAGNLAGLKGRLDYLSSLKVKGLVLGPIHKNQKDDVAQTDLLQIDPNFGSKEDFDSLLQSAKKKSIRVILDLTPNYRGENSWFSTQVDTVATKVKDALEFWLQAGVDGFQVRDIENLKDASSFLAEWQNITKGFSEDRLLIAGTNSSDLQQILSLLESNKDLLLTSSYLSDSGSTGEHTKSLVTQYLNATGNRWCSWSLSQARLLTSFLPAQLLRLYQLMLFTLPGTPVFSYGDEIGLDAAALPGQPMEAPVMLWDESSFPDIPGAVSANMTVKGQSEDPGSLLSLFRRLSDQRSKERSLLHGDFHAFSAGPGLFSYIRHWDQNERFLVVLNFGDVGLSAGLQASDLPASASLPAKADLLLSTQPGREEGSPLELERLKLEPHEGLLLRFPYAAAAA

B1: huAb15v2 (antibody, V domains shown)
VH: EVQLVESGGGVVQPGRSLRLSCAASGFTFSDYTMAWVRQAPGKGLEWVATIIYSGRGTYYRDAVKGRFTISRDNSKSTLYLQMNSLRAEDTAVYYCARQSDDTYYYWGYFDYWGQGTMVTVSS
VL: DIVMTQSPDSLAVSLGERATINCKSSQSLLFSGNQKNYLAWYQQKPGQSPKLLIYWASTRQSGVPDRFSGSGSGTDFTLTIRSLQAEDVAIYYCQQYYDVPYTFGQGTKLEIK
notes: Humanized, further engineered clone of chAb15, converted to IgG and expressed as a full-length antibody
Kd [1]: 1.1 nM
koff [1]: 4.6e-05 s⁻¹
kon [1]: 42000 M⁻¹ s⁻¹
Kd [2]: 2.3 nM
koff [2]: 4.8e-05 s⁻¹
kon [2]: 21000 M⁻¹ s⁻¹

B2: huAb105 (antibody, V domains shown)
VH: EVQLVESGGGLVQPGGSLRLSCAASGFTFSDYTMAWVRQAPGKGLEWVATIIYSGRGTYYRDAVKGRFTISRDNAKNTLYLQMNSLRAEDTAVYYCARQSDHTYYYWGYFDYWGQGTMVTVSS
VL: DIVMTQTPLSLPVTPGEPASINCKSSQSLLFSGNQKNYLAWYLQKPGQSPQLLIYWASTRQSGVPDRFSGSGSGTDFTLKISRVEAEDVGIYYCQQYYDVPYTFGQGTKLEIK
notes: Framework re-engineered humanized clone (parent huAb15v1), expressed as full-length IgG
Kd [3]: 1.4 nM
koff [3]: 5.3e-05 s⁻¹
kon [3]: 38000 M⁻¹ s⁻¹
Kd [4]: 0.17 nM
koff [4]: 2.4e-05 s⁻¹
kon [4]: 140000 M⁻¹ s⁻¹

B3: huAb15v4 (antibody, V domains shown)
VH: EVQLVESGGGVVQPGRSLRLSCAASGFTFSDYTMAWVRQAPGKGLEWVATIIYTGRGTYYRDAVKGRFTISRDNSKSTLYLQMNSLRAEDTAVYYCARQSDDTYYYWGYFDYWGQGTMVTVSS
VL: DIVMTQSPDSLAVSLGERATINCKSSQSLLFSGNQKNYLAWYQQKPGQSPKLLIYWASTRQSGVPDRFSGSGSGTDFTLTIRSLQAEDVAIYYCQQYYDVPYTFGQGTKLEIK
notes: as for B1
Kd [1]: 0.81 nM
koff [1]: 2.8e-05 s⁻¹
kon [1]: 35000 M⁻¹ s⁻¹
Kd [2]: 2.6 nM
koff [2]: 5e-05 s⁻¹
kon [2]: 20000 M⁻¹ s⁻¹

B4: huAb109 (antibody, V domains shown)
VH: EVQLVESGGGLVQPGGSLRLSCAASGFTFSDYTMAWVRQAPGKGLEWVATIIYDARGTYYRDAVKGRFTISRDNAKNTLYLQMNSLRAEDTAVYYCARQSDDTYYYWGYFDYWGQGTMVTVSS
VL: DIVMTQTPLSLPVTPGEPASINCKSSQSLLFSGNQKNYLAWYLQKPGQSPQLLIYWASTRQSGVPDRFSGSGSGTDFTLKISRVEAEDVGIYYCQQYYSSPYTFGQGTKLEIK
notes: Framework re-engineered humanized clone (parent huAb15v6), expressed as full-length IgG
Kd [3]: 12 nM
koff [3]: 0.00031 s⁻¹
kon [3]: 26000 M⁻¹ s⁻¹
Kd [4]: 1.1 nM
koff [4]: 0.00017 s⁻¹
kon [4]: 160000 M⁻¹ s⁻¹

B5: huAb15v3 (antibody, V domains shown)
VH: EVQLVESGGGVVQPGRSLRLSCAASGFTFSDYTMAWVRQAPGKGLEWVATIIYSGRGTYYRDAVKGRFTISRDNSKSTLYLQMNSLRAEDTAVYYCARQSDDTYYYWGYFDYWGQGTMVTVSS
VL: DIVMTQSPDSLAVSLGERATINCKSSQSLLFSGNQKNYLAWYQQKPGQSPKLLIYWASTRQSGVPDRFSGSGSGTDFTLTIRSLQAEDVAIYYCQQYYGSPYTFGQGTKLEIK
notes: as for B1
Kd [1]: 2 nM
koff [1]: 8.5e-05 s⁻¹
kon [1]: 44000 M⁻¹ s⁻¹
Kd [2]: 7.6 nM
koff [2]: 0.00014 s⁻¹
kon [2]: 18000 M⁻¹ s⁻¹

B6: huAb15v1 (antibody, V domains shown)
VH: EVQLVESGGGVVQPGRSLRLSCAASGFTFSDYTMAWVRQAPGKGLEWVATIIYSGRGTYYRDAVKGRFTISRDNSKSTLYLQMNSLRAEDTAVYYCARQSDHTYYYWGYFDYWGQGTMVTVSS
VL: DIVMTQSPDSLAVSLGERATINCKSSQSLLFSGNQKNYLAWYQQKPGQSPKLLIYWASTRQSGVPDRFSGSGSGTDFTLTIRSLQAEDVAIYYCQQYYDVPYTFGQGTKLEIK
notes: as for B1
Kd [1]: 0.43 nM
koff [1]: 2.3e-05 s⁻¹
kon [1]: 53000 M⁻¹ s⁻¹
Kd [2]: 1 nM
koff [2]: 2.6e-05 s⁻¹
kon [2]: 26000 M⁻¹ s⁻¹

B7: huAb106 (antibody, V domains shown)
VH: EVQLVQSGAEVKKPGASVKVSCKASGFTFSDYTMAWVRQAPGQGLEWVATIIYSGRGTYYRDAVKGRFTITRDNSTSTLYLELSSLRSEDTAVYYCARQSDHTYYYWGYFDYWGQGTMVTVSS
VL: DIVMTQTPLSLPVTPGEPASINCKSSQSLLFSGNQKNYLAWYLQKPGQSPQLLIYWASTRQSGVPDRFSGSGSGTDFTLKISRVEAEDVGIYYCQQYYDVPYTFGQGTKLEIK
notes: as for B2
Kd [3]: 2.2 nM
koff [3]: 9.5e-05 s⁻¹
kon [3]: 43000 M⁻¹ s⁻¹
Kd [4]: 0.16 nM
koff [4]: 2.2e-05 s⁻¹
kon [4]: 140000 M⁻¹ s⁻¹

B8: huAb108 (antibody, human IgG1, kappa, L234A L235A, V domains shown)
VH: EVQLVQSGAEVKKPGASVKVSCKASGFTFSDYTMAWVRQAPGQGLEWVATIIYSGRGTYYRDAVKGRFTITRDNSTSTLYLELSSLRSEDTAVYYCARQSDDTYYYWGYFDYWGQGTMVTVSS
VL: DIVMTQTPLSLPVTPGEPASINCKSSQSLLFSGNQKNYLAWYLQKPGQSPQLLIYWASTRQSGVPDRFSGSGSGTDFTLKISRVEAEDVGIYYCQQYYDVPYTFGQGTKLEIKR
notes: Framework re-engineered humanized clone (parent huAb15v2); also called CL-huAb108
Kd [3]: 4.6 nM
koff [3]: 0.00014 s⁻¹
kon [3]: 29000 M⁻¹ s⁻¹
Kd [4]: 0.55 nM
koff [4]: 4.1e-05 s⁻¹
kon [4]: 75000 M⁻¹ s⁻¹

B9: huAb110 (antibody, human IgG1, kappa, L234A L235A, V domains shown)
VH: EVQLVQSGAEVKKPGASVKVSCKASGFTFSDYTMAWVRQAPGQGLEWVATIIYDARGTYYRDAVKGRFTITRDNSTSTLYLELSSLRSEDTAVYYCARQSDDTYYYWGYFDYWGQGTMVTVSS
VL: DIVMTQTPLSLPVTPGEPASINCKSSQSLLFSGNQKNYLAWYLQKPGQSPQLLIYWASTRQSGVPDRFSGSGSGTDFTLKISRVEAEDVGIYYCQQYYSSPYTFGQGTKLEIKR
notes: Framework re-engineered humanized clone (parent huAb15v6); also called CL-huAb110
Kd [3]: 23 nM
koff [3]: 0.00051 s⁻¹
kon [3]: 23000 M⁻¹ s⁻¹
Kd [4]: 2.3 nM
koff [4]: 0.0003 s⁻¹
kon [4]: 130000 M⁻¹ s⁻¹

B10: huAb3v1 (antibody, V domains shown)
VH: EVQLVESGGGLVQPGRSLRLSCTTSGFTFIDYYMSWVRQAPGKGLEWLGFIRNKANRYTTEYSASVKGRFTISRDNSKSILYLQMNSLKTEDTAVYYCTRDRPAWFVYWGQGTLVTVSS
VL: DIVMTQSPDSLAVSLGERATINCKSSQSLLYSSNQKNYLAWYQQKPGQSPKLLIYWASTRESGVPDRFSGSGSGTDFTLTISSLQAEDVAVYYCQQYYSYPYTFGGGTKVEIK
notes: Humanized, further engineered clone of chAb3, converted to IgG and expressed as a full-length antibody
Kd [1]: 13 nM
koff [1]: 0.0023 s⁻¹
kon [1]: 180000 M⁻¹ s⁻¹
Kd [2]: 23 nM
koff [2]: 0.00092 s⁻¹
kon [2]: 40000 M⁻¹ s⁻¹

B11: huAb3v2 (antibody, V domains shown)
VH: EVQLVESGGGLVQPGRSLRLSCTTSGFTFIDYYMSWVRQAPGKGLEWLGFIRNKAYGYTTEYSASVKGRFTISRDNSKSILYLQMNSLKTEDTAVYYCTRDRPAWFVYWGQGTLVTVSS
VL: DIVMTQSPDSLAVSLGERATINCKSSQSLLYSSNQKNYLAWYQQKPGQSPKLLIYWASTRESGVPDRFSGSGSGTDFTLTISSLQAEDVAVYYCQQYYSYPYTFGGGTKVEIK
notes: as for B10
Kd [1]: 4.9 nM
koff [1]: 0.0013 s⁻¹
kon [1]: 260000 M⁻¹ s⁻¹
Kd [2]: 17 nM
koff [2]: 0.00049 s⁻¹
kon [2]: 29000 M⁻¹ s⁻¹
